Reference: US20220098266A1 (AKSTON BIOSCIENCES, published 2022)

B1: insulin-Fc fusion protein of SEQ ID NO: 24 (insulin polypeptide SEQ ID NO: 4, linker SEQ ID NO: 8, canine IgGB Fc fragment SEQ ID NO: 11) (Fc fusion)
chain: FVNQHLCGSDLVEALALVCGERGFFYTDPTGGGPRRGIVEQCCHSICSLYQLENYCNGGGGAGGGGDCPKCPAPEMLGGPSVFIFPPKPKDTLLIARTPEVTCVVVDLDPEDPEVQISWFVDGKQMQTAKTQPREEQFNGTYRVVSVLPIGHQDWLKGKQFTCKVNNKALPSPIERTISKARGQAHQPSVYVLPPSREELSKNTVSLTCLIKDFFPPDIDVEWQSNGQQEPESKYRTTPPQLDEDGSYFLYSKLSVDKSRWQRGDTFICAVMHEALHNHYTQESLSHSPG
notes: Made in HEK293 cells; Disulfide-linked homodimer, 93% homodimer; Glycosylated at cNg-NB139
B2: insulin-Fc fusion protein of SEQ ID NO: 27 (SEQ ID NO: 24 with the mutation cNg-NB139-S; canine IgGB Fc fragment SEQ ID NO: 14) (Fc fusion)
chain: FVNQHLCGSDLVEALALVCGERGFFYTDPTGGGPRRGIVEQCCHSICSLYQLENYCNGGGGAGGGGDCPKCPAPEMLGGPSVFIFPPKPKDTLLIARTPEVTCVVVDLDPEDPEVQISWFVDGKQMQTAKTQPREEQFSGTYRVVSVLPIGHQDWLKGKQFTCKVNNKALPSPIERTISKARGQAHQPSVYVLPPSREELSKNTVSLTCLIKDFFPPDIDVEWQSNGQQEPESKYRTTPPQLDEDGSYFLYSKLSVDKSRWQRGDTFICAVMHEALHNHYTQESLSHSPG
notes: Made in HEK293 cells; Non-glycosylated homodimer, 98.3% homodimer; also called cNg-S
B3: insulin-Fc fusion protein of SEQ ID NO: 29 (SEQ ID NO: 24 with des hinge D and the mutation cNg-NB138-K; canine IgGB Fc fragment SEQ ID NO: 15) (Fc fusion)
chain: FVNQHLCGSDLVEALALVCGERGFFYTDPTGGGPRRGIVEQCCHSICSLYQLENYCNGGGGAGGGGCPKCPAPEMLGGPSVFIFPPKPKDTLLIARTPEVTCVVVDLDPEDPEVQISWFVDGKQMQTAKTQPREEQFKGTYRVVSVLPIGHQDWLKGKQFTCKVNNKALPSPIERTISKARGQAHQPSVYVLPPSREELSKNTVSLTCLIKDFFPPDIDVEWQSNGQQEPESKYRTTPPQLDEDGSYFLYSKLSVDKSRWQRGDTFICAVMHEALHNHYTQESLSHSPG
notes: Made in HEK293 cells; Non-glycosylated homodimer, 98.1% homodimer; also called cNg-K
B4: insulin-Fc fusion protein of SEQ ID NO: 20 (insulin polypeptide SEQ ID NO: 4, linker SEQ ID NO: 8, canine IgGA Fc fragment SEQ ID NO: 10) (Fc fusion)
chain: FVNQHLCGSDLVEALALVCGERGFFYTDPTGGGPRRGIVEQCCHSICSLYQLENYCNGGGGAGGGGRCTDTPPCPVPEPLGGPSVLIFPPKPKDILRITRTPEVTCVVLDLGREDPEVQISWFVDGKEVHTAKTQSREQQFNGTYRVVSVLPIEHQDWLTGKEFKCRVNHIDLPSPIERTISKARGRAHKPSVYVLPPSPKELSSSDTVSITCLIKDFYPPDIDVEWQSNGQQEPERKHRMTPPQLDEDGSYFLYSKLSVDKSRWQQGDPFTCAVMHETLQNHYTDLSLSHSPG

The binders below were run against T1, human insulin receptor on human IM-9 cells (human, UniProt P06213 28-1382) (assay: flow cytometry competition with biotinylated RHI on IM-9 cells at 4 C).
T1 construct: whole, on cells; The natural receptor is an alpha2-beta2 tetramer processed from one precursor; also called IR; human IR
T1 sequence (P06213 28-1382): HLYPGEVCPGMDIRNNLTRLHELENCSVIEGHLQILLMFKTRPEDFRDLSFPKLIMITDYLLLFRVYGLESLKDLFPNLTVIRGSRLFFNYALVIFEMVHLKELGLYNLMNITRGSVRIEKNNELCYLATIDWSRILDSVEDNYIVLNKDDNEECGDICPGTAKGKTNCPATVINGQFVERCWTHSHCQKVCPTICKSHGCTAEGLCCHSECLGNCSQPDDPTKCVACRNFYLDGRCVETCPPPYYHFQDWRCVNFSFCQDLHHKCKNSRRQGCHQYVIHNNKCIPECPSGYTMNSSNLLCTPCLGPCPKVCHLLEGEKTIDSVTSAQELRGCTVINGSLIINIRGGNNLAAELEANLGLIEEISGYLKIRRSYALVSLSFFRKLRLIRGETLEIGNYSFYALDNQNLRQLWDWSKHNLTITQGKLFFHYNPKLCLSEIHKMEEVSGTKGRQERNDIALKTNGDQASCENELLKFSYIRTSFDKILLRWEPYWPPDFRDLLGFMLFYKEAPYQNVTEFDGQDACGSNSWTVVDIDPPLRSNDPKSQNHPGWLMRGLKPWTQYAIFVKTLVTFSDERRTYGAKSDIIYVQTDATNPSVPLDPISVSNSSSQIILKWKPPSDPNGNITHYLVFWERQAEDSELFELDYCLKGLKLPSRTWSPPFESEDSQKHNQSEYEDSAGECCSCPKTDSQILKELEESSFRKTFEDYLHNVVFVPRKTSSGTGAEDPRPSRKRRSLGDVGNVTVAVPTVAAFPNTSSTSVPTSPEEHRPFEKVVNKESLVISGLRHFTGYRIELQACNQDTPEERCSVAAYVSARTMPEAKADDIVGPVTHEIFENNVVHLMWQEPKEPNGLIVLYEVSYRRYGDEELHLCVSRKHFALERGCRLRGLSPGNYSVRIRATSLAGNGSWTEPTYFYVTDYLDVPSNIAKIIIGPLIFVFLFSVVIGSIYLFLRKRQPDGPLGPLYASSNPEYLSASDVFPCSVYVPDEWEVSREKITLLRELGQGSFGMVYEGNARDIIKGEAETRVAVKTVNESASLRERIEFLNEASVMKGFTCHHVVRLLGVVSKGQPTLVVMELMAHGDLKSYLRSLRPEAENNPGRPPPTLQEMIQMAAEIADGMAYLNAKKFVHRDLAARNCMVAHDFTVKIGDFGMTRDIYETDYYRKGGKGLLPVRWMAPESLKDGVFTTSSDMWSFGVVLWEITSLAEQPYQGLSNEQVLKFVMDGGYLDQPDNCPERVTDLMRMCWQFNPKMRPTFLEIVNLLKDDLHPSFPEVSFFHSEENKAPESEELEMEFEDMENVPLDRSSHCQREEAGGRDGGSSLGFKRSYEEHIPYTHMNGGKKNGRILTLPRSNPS
Protocol: Cultures of IM-9 cells were centrifuged at 250×g (˜1000 rpm) for 10 min to pellet the cells. Cells were washed once with HBSS or PBS buffer, resuspended in cold FACS staining medium (HBSS/2 mM EDTA/0.1% Na-azide+4% horse serum) to a concentration of 8×10^6 cells/mL and kept on ice or 4° C. until test solutions were made. The insulin-Fc protein was diluted in FACS buffer in 1:3 serial dilutions as 2× concentrations in 1.2 mL tubes (approx. 60 μL volume of each dilution), and the solutions were kept cold on ice until ready for pipetting.
Biotinylated-RHI was diluted in FACS staining medium to a concentration of 1.25 μg/mL. 40 μL of the serially diluted test compound and 8 μL of 1.25 μg/mL Biotin-RHI were added into each well of a V bottom microtiter plate, mixed by slow vortexing, and placed on ice. 40 μL of an IM-9 cell suspension (8×10^6 cells/mL) was then added to each well by multichannel pipette, mixed again gently and incubated on ice for 30 min to allow competitive binding on the insulin receptor on IM-9 cells. Cells were then washed twice with […], of ice-cold FACS wash buffer (HBSS/2 mM EDTA/0.1% Na-azide+0.5% horse serum) by centrifuging the V-bottom plate at 3000 rpm for 3 min and aspirating the supernatant. Cells were then resuspended in […], of FACS staining medium containing 1:100 diluted Streptavidin-PE (Life Technologies) for 20 min on ice. Cells were then washed once with 275 μL of ice-cold FACS buffer and finally fixed with 3% paraformaldehyde for 10 min at room temp. Cells were then washed once with 275 μL of ice-cold FACS buffer and resuspended in 250 μl of FACS buffer for analysis.
The V-bottom plates containing cells were then analyzed on a Guava 8-HT flow cytometer (Millipore). Biotinylated-RHI binding to insulin receptor was quantitated by the median fluorescence intensity (MFI) of the cells on the FACS FL-2 channel for each concentration of the test compound. Control wells were labeled only with biotinylated-RHI and were used to calculate the percent (%) inhibition resulting from each test compound concentration. The % inhibition by test compounds of biotinylated-RHI binding on IM-9 cells was plotted against log concentrations of the test compound, and the resulting IC50 values were calculated using GraphPad Prism (GraphPad Software, La Jolla, Calif.) for the test compounds.

| Binder | IC50 [nM] |
| --- | --- |
| B1 | 28 |
| B2 | 145 |
| B3 | 147 |
| B4 | 2730 |
